Experimental findings from patent US20240409635A1 (VIBRANT PHARMA, published 2024) are described below.

Assay [1] deals with T1, recombinant human CD3ε/δ protein (ACRO systems, CDD-H52W1) (human, UniProt P07766 23-126; P04234 22-105).
T1 construct: Bought reagent
The experiment in a line: BLI, antibody captured on AHC sensor. On the procedure: (§1) Antibodies were first captured onto an anti-human IgG Fc coated AHC biosensor (Anti-hIgG Fc, Sartorius, 18-5060). Antibodies were diluted to 5 μg/mL and 1.5 nm protein was coupled to the AHC sensor surface in 0.02% PBST.
(§2) After the sensor captures the antibodies, it is used to bind and dissociate with different concentrations of analytes to obtain the KD value of the interaction. The experimental parameters are as follows: Baseline1: 60 s, Loading: 240 s, Baseline2: 180 s, Association: 240 s, Dissociation: 600 s, High sensitivity kinetics: 2 Hz. Kinetic constants were derived based on the rate equation for 1:1 Langmuir binding to obtain equilibrium dissociation constants (KD). The Data Analysis HT 12 software (Sartorius, 50-5029) was used to simultaneously fit binding and dissociation curves to calculate Kₒₙ, and Koff. The affinity KD was calculated based on the below formula: KD=Koff/Kₒₙ.

In assay [2] the target is T2, recombinant human tumor antigen CEA (CEACAM-5/CD66e, ACRO systems, CE5-H5226) (human, UniProt P06731 35-685).
T2 construct: Bought
T2 sequence (looked up): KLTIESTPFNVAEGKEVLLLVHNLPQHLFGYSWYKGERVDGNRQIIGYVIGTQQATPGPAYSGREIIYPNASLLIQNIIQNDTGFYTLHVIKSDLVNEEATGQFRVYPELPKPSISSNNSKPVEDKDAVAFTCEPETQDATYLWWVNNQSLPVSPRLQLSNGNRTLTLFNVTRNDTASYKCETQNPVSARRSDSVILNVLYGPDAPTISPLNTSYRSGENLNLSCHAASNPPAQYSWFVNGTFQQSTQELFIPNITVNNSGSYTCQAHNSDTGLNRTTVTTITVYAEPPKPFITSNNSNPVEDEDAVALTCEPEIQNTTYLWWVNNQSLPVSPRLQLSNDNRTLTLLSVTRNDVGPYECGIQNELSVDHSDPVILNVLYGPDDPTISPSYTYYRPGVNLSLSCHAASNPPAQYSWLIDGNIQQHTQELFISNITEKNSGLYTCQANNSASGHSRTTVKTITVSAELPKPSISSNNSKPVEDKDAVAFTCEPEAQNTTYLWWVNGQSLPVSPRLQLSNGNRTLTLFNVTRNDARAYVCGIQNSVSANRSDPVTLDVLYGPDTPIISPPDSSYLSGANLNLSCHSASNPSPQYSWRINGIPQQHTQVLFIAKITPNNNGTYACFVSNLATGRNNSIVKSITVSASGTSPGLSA
The experiment in a line: BLI, antibody on AHC sensor, antigen as analyte. As to the method:
as §1
as §2, with “binds” for “is used to bind”, “dissociates” for “dissociate”, “Kₒₙ” for “Kₒₙ,”

Assay [3] addresses T3, recombinant human tumor antigen HER2 (ERBB2, ACRO systems, HE2-H5212) (human, UniProt P04626 23-652).
T3 construct: Bought
Nature of the assay: BLI, antibody on AHC sensor, antigen as analyte. As to the method: as §1
as §2, with “binds” for “is used to bind”, “dissociates” for “dissociate”, “Kₒₙ” for “Kₒₙ,”

In assay [4] the target is T4, recombinant human protein CD3ε/δ (ACRO systems, CDD-H52W1) (human, UniProt P07766 23-126; P04234 22-105).
T4 construct: Bought heterodimer
T4 sequence (P07766 23-126, stated change not applied, chain 1 of 2): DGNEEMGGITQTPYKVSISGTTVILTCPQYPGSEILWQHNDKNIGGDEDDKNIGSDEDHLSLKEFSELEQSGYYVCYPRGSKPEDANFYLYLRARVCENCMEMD
T4 sequence (P04234 22-105, stated change not applied, chain 2 of 2): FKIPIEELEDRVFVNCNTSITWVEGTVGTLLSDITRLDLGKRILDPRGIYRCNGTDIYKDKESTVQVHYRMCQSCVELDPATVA
Nature of the assay: BLI, antibody on AHC sensor, antigen as analyte. On the procedure:
as §1
as §2, with “binds” for “is used to bind”, “dissociates” for “dissociate”, “Kₒₙ” for “Kₒₙ,”

T1 sequence (P07766 23-126, stated change not applied, chain 1 of 2): as the sequence (P07766 23-126, stated change not applied, chain 1 of 2) above
T1 sequence (P04234 22-105, stated change not applied, chain 2 of 2): as the sequence (P04234 22-105, stated change not applied, chain 2 of 2) above

B1: CEA-BsAb bispecific control antibody (TA1-Fab CD3 x CEA VHH) (bispecific antibody, human IgG4 S228P, kappa, F234A L235A)
heavy: EVKLLESGGGLVQPKGSLKLSCAASGFTFNTYAMNWVRQAPGKGLEWVARIRSKYNNYATYYADSVKDRFTISRDDSQSILYLQMNNLKTEDTAMYYCVRHGNFGNSYVSWFAYWGQGTLVTVSSASTKGPSVFPLAPCSRSTSESTAALGCLVKDYFPEPVTVSWNSGALTSGVHTFPAVLQSSGLYSLSSVVTVPSSSLGTKTYTCNVDHKPSNTKVDKRVESKYGPPCPPCPAPEAAGGPSVFLFPPKPKDTLMISRTPEVTCVVVDVSQEDPEVQFNWYVDGVEVHNAKTKPREEQFNSTYRVVSVLTVLHQDWLNGKEYKCKVSNKGLPSSIEKTISKAKGQPREPQVYTLPPCQEEMTKNQVSLWCLVKGFYPSDIAVEWESNGQPENNYKTTPPVLDSDGSFFLYSRLTVDKSRWQEGNVFSCSVMHEALHNHYTQKSLSLSL
chain: EVQLVESGGGFVQAGESLTLSCTSSTLTFTPYRMAWYRQAPGKQRDLVADISSGDGRTTNYADFAKGRFTISRDNIKNTVFLRMTNLKPEDTAVYYCNTFVSFVGIARSWGQGTQVTVSSESKYGPPCPPCPAPEAAGGPSVFLFPPKPKDTLMISRTPEVTCVVVDVSQEDPEVQFNWYVDGVEVHNAKTKPREEQFNSTYRVVSVLTVLHQDWLNGKEYKCKVSNKGLPSSIEKTISKAKGQPREPQVCTLPPSQEEMTKNQVSLSCAVKGFYPSDIAVEWESNGQPENNYKTTPPVLDSDGSFFLVSRLTVDKSRWQEGNVFSCSVMHEALHNRFTQKSLSLSL
light: QAVVTQESALTTSPGETVTLTCRSSTGAVTTSNYANWVQEKPDHLFTGLIGGTNKRAPGVPARFSGSLIGDKAALTITGAQTEDEAIYFCALWYSNLWVFGGGTKVEIKRTVAAPSVFIFPPSDEQLKSGTASVVCLLNNFYPREAKVQWKVDNALQSGNSQESVTEQDSKDSTYSLSSTLTLSKADYEKHKVYACEVTHQGLSSPVTKSFNRGEC
For the molecule B1, in assay [1], the dissociation constant (Kd) came to 0.491 nM, the off-rate constant (koff) was determined as 0.000236 s⁻¹ and the kon was determined as 481000 M⁻¹ s⁻¹.

B2: unilateral CD3/CEA/HER2 trispecific antibody 612 (other)
chain 1: EVQLVESGGGFVQAGESLTLSCTSSTLTFTPYRMAWYRQAPGKQRDLVADISSGDGRTTNYADFAKGRFTISRDNIKNTVFLRMTNLKPEDTAVYYCNTFVSFVGIARSWGQGTQVTVSSESKYGPPCPPCPAPEAAGGPSVFLFPPKPKDTLMISRTPEVTCVVVDVSQEDPEVQFNWYVDGVEVHNAKTKPREEQFNSTYRVVSVLTVLHQDWLNGKEYKCKVSNKGLPSSIEKTISKAKGQPREPQVYTLPPCQEEMTKNQVSLWCLVKGFYPSDIAVEWESNGQPENNYKTTPPVLDSDGSFFLYSRLTVDKSRWQEGNVFSCSVMHEALHNHYTQKSLSLSL
chain 2: QVQLVQSGGGLVQAGGSLRLSCAASGRTFSSYAMAWFRQAPGKEREFVAAISWSGANIYVADSVKGRFTISRDNAKDTVYLQMNSLKPEDTAVYYCAVKLGFAPVEERQYDYWGQGTQVTVSSGGGGSGGGGSEVKLLESGGGLVQPKGSLKLSCAASGFTFNTYAMNWVRQAPGKGLEWVARIRSKYNNYATYYADSVKDRFTISRDDSQSILYLQMNNLKTEDTAMYYCVRHGNFGNSYVSWFAYWGQGTLVTVSSASTKGPSVFPLAPCSRSTSESTAALGCLVKDYFPEPVTVSWNSGALTSGVHTFPAVLQSSGLYSLSSVVTVPSSSLGTKTYTCNVDHKPSNTKVDKRVESKYGPPCPPCPAPEAAGGPSVFLFPPKPKDTLMISRTPEVTCVVVDVSQEDPEVQFNWYVDGVEVHNAKTKPREEQFNSTYRVVSVLTVLHQDWLNGKEYKCKVSNKGLPSSIEKTISKAKGQPREPQVCTLPPSQEEMTKNQVSLSCAVKGFYPSDIAVEWESNGQPENNYKTTPPVLDSDGSFFLVSRLTVDKSRWQEGNVFSCSVMHEALHNRFTQKSLSLSL
chain 3: QAVVTQESALTTSPGETVTLTCRSSTGAVTTSNYANWVQEKPDHLFTGLIGGTNKRAPGVPARFSGSLIGDKAALTITGAQTEDEAIYFCALWYSNLWVFGGGTKVEIKRTVAAPSVFIFPPSDEQLKSGTASVVCLLNNFYPREAKVQWKVDNALQSGNSQESVTEQDSKDSTYSLSSTLTLSKADYEKHKVYACEVTHQGLSSPVTKSFNRGEC
Take B2: in assay [2], the Kd is 0.193 nM, the koff was 0.000105 s⁻¹ and the kon stood at 542000 M⁻¹ s⁻¹. For the same molecule, in assay [3], the Kd is 108 nM, the koff was determined as 0.0122 s⁻¹ and the kon was 113000 M⁻¹ s⁻¹. In addition, in assay [4], the equilibrium dissociation constant (Kd) was found to be 1.77 nM, the off-rate (koff) was found to be 0.000682 s⁻¹ and the on-rate (kon) is 386000 M⁻¹ s⁻¹.

B3: HER2-BsAb (CD3 TA1-Fab x HER2 VHH bispecific control antibody) (bispecific antibody, human IgG4 S228P, kappa, F234A L235A)
heavy: EVKLLESGGGLVQPKGSLKLSCAASGFTFNTYAMNWVRQAPGKGLEWVARIRSKYNNYATYYADSVKDRFTISRDDSQSILYLQMNNLKTEDTAMYYCVRHGNFGNSYVSWFAYWGQGTLVTVSSASTKGPSVFPLAPCSRSTSESTAALGCLVKDYFPEPVTVSWNSGALTSGVHTFPAVLQSSGLYSLSSVVTVPSSSLGTKTYTCNVDHKPSNTKVDKRVESKYGPPCPPCPAPEAAGGPSVFLFPPKPKDTLMISRTPEVTCVVVDVSQEDPEVQFNWYVDGVEVHNAKTKPREEQFNSTYRVVSVLTVLHQDWLNGKEYKCKVSNKGLPSSIEKTISKAKGQPREPQVYTLPPCQEEMTKNQVSLWCLVKGFYPSDIAVEWESNGQPENNYKTTPPVLDSDGSFFLYSRLTVDKSRWQEGNVFSCSVMHEALHNHYTQKSLSLSL
chain: QVQLVQSGGGLVQAGGSLRLSCAASGRTFSSYAMAWFRQAPGKEREFVAAISWSGANIYVADSVKGRFTISRDNAKDTVYLQMNSLKPEDTAVYYCAVKLGFAPVEERQYDYWGQGTQVTVSSESKYGPPCPPCPAPEAAGGPSVFLFPPKPKDTLMISRTPEVTCVVVDVSQEDPEVQFNWYVDGVEVHNAKTKPREEQFNSTYRVVSVLTVLHQDWLNGKEYKCKVSNKGLPSSIEKTISKAKGQPREPQVCTLPPSQEEMTKNQVSLSCAVKGFYPSDIAVEWESNGQPENNYKTTPPVLDSDGSFFLVSRLTVDKSRWQEGNVFSCSVMHEALHNRFTQKSLSLSL
light: QAVVTQESALTTSPGETVTLTCRSSTGAVTTSNYANWVQEKPDHLFTGLIGGTNKRAPGVPARFSGSLIGDKAALTITGAQTEDEAIYFCALWYSNLWVFGGGTKVEIKRTVAAPSVFIFPPSDEQLKSGTASVVCLLNNFYPREAKVQWKVDNALQSGNSQESVTEQDSKDSTYSLSSTLTLSKADYEKHKVYACEVTHQGLSSPVTKSFNRGEC
Turning to B3, in assay [2], the koff amounted to 0.000391 s⁻¹ and the on-rate constant (kon) is 877000 M⁻¹ s⁻¹. Further, in assay [3], the Kd stood at 98.4 nM, the off-rate constant (koff) is 0.0126 s⁻¹ and the association rate constant (kon) was found to be 128000 M⁻¹ s⁻¹. Moreover, in assay [4], the Kd came to 1.51 nM, the koff was determined as 0.000386 s⁻¹ and the kon is 256000 M⁻¹ s⁻¹.
